This data set deals with stromal cell-derived factor 1 (SDF-1).

The values below come from patent publication US20080305097.

On to cathepsin K (CTK), for which the “SDF-1 cleavage by CTK (SDS-PAGE and western blot, time course of minutes)” value is “The results obtained show fast and site specific SDF-1 cleavage by CTK”.
